In US20150329642A1 (Genmab, published 2015):

Legend:
[1] = molecular target: T1, cMetECDHis (human, UniProt P08581 25-932, limits assumed, biotinylated in the cross-block ELISA of Example 17); experiment: cross-block ELISA; competitor 058
T1 construct: Expressed in HEK-293F cells; also called soluble cMetECDHis; biotinylated cMetECDHis
Procedure: First, the optimal coating concentrations of the tested anti-c-Met antibodies and the optimal cMetECDHis concentration were determined. Therefore, ELISA wells were coated overnight at 4° C. with anti-c-Met HuMabs serially diluted in PBS (8 μg/mL in 2-fold dilutions). Next, the ELISA wells were washed with PBST (PBS supplemented with 0.05% Tween-20 [Sigma-Aldrich, Zwijndrecht, The Netherlands]) and blocked for one hour at room temperature (RT) with PBSTC (PBST supplemented 2% [v/v] chicken serum [Gibco, Paisley, Scotland]). Subsequently, the ELISA wells were washed with PBST and incubated for one hour at RT with biotinylated cMetECDHis serially diluted in PBSTC (1 μg/mL in 2-fold dilutions). Unbound biotinylated cMetECDHis was washed away with PBST, and bound biotinylated cMetECDHis was incubated for one hour at RT with 0.1 μg/mL Streptavidin-poly-HRP (Sanquin, Amsterdam, The Netherlands) diluted in PBST.
ELISA wells were coated with anti-c-Met antibody at a sub-optimal dose as described above. After blocking of the ELISA wells, they were incubated with the predetermined concentration of biotinylated cMetECDHis in the presence of an excess of anti-c-Met antibody. The reaction was developed as described above. Residual binding was expressed as a percentage relative to the binding observed in the absence of competitor antibody.

[2] = molecular target: T2, cMetSEMA-567His8 (human, UniProt P08581 25-567, limits assumed); experiment: TR-FRET; displacement of AlexaFluor-647-HGF from cMetSEMA-567His8
T2 construct: In the TR-FRET assay detected by anti-6xhis Europium3+; also called cMetSEMAHis; SEMA domain of c-Met; not shown: C-terminal His tag; the text says His9, the construct name says His8
Procedure: Therefore, the interaction of anti-c-Met antibodies with the SEMA domain of the c-Met receptor was studied using TR-FRET technology. […] The mean fluorescent intensity at 665 nm was measured on the EnVision 2101 Multilabel reader (PerkinElmer).
A 4-fold serial dilution of unlabeled anti-c-Met antibody ranging from 0.49-8000 ng/mL was tested. After overnight incubation at 4° C. in the dark, mean fluorescence intensity at 665 nm was measured using the EnVision 2101 Multilabel reader applying the following settings: Lance/Delfia dual mirror, emission filter 615-665 nm, excitation filter 320 nm, delay time 60 μs, window 100 μs, 100 flashes, 2000 μs per cycle and bidirectional row-by-row reading. To determine IC₅₀ values, the binding curves were analyzed with non-linear regression (sigmoidal dose-response with variable slope) using GraphPad Prism V4.03 software (GraphPad Software, San Diego, Calif., USA).

[3] = molecular target: T3, recombinant human c-Met extracellular domain (R&D systems) (human, UniProt P08581 25-932); experiment: competition ELISA on coated recombinant c-Met extracellular domain; blocked ligand Europium-conjugated HGF; column headed EC50 on the sheet, called IC50 in paragraph 270; lower panel
T3 construct: extracellular domain; Bought reagent; also called coated extracellular domain of c-Met; recombinant c-Met
Procedure: ELISA wells were coated overnight at 4° C. with 0.5 μg/mL recombinant human c-Met extracellular domain (R&D systems, Minneapolis, USA) diluted in PBS. Next, the ELISA wells were washed with PBST (PBS supplemented with 0.05% Tween-20 [Sigma-Aldrich, Zwijndrecht, The Netherlands]) and blocked for one hour at room temperature (RT) with PBST supplemented with 2% (v/v) chicken serum (Gibco, Paisley, Scotland). […] Mean fluorescence intensity at 615 nm was measured using the EnVision 2101 Multilabel reader (PerkinElmer) applying the following settings: Lance/Delfia dual mirror, emission filter 615, excitation filter 340 nm, delay time 400 μs, window 400 μs, 100 flashes, 2000 μs per cycle and bidirectional row-by-row reading. To determine IC₅₀ values, the binding curves were analyzed with non-linear regression (sigmoidal dose-response with variable slope, top-values constrained to a shared value for all data-sets) using GraphPad Prism V4.03 software (GraphPad Software, San Diego, Calif., USA).
FIG. 5 depicts representative examples of HGF binding inhibition curves of anti-c-Met antibodies for binding to the extracellular domain of recombinant human c-Met. 5D5 was used as positive control antibody. All anti-c-Met antibodies in the experiment shown were able to compete with Europium^{3±}-conjugated HGF for binding to recombinant c-Met. […] Without adding Europium³⁺-conjugated HGF, roughly ˜600 relative fluorescent units (RFU) were detected, indicating the signal when maximal inhibition is accomplished. When binding of Europium³⁺-conjugated HGF was not inhibited, approximately ˜66,000 RFU were detected.

residual binding, % of no competitor [1]: 93.1%
% inhibition [2]: 96%
IC50 [2]: 0.53 µg/mL
IC50 [3]: 0.0558 µg/mL
B1: anti-c-Met HuMab 101 (IgG1) (antibody, V domains shown)
VH: QVQLVQSGGEVKKPGASVKVSCKASGYTFTRHGITWVRQAPGQGLEWMGWISADNGNTNYAQKFQDRVTMTTDTSTSTAYMELRSLRSDDTAVYFCARVFRYFDWLLPYFDYWGQGTLVTVST
VL: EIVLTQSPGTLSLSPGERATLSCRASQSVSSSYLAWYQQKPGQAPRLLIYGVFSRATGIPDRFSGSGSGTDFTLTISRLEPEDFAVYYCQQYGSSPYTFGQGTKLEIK
